The results in this text go back to article doi:10.1101/2025.11.17.688911.

The target in assay [1] is surface-immobilized biotinylated microtubules, Q2XVP4;Q767L7. As to the kind of experiment: fluorescence intensity of GFP-tagged MAP9-MTBD on surface-immobilized MTs (fluorescence microscopy). Conditions: 100 nM MAP9 construct (stated for panel h); parent: est. 0.72; read off a plot.
The target of assay [2] is surface-immobilized biotinylated microtubules (pig) (UniProt Q2XVP4). As to the kind of experiment: TIRF microscopy, fluorescence intensity of GFP-tagged MAP on microtubules; biotinylated MTs held on a streptavidin-coated coverslip; one concentration of WT or mutant MAP9 construct (100 nM in Fig. 1h-i and Extended Data Fig. 6b); BRB80, 100 mM salt.

Consider “MAP9-MTBD (Human MAP9 (302–647)::GFP::strepII) (from UniProt Q49MG5) W432A; W476A; W519A; W563A; W606A”, for which the response in assay [1] was 0.04 a.u.
As for “MAP9-MTBD R1R2 (from UniProt Q49MG5 302-647) (domain or fragment)”, the percent reduction of MT binding against WT MAP9-MTBD in assay [2] was found to be 80%.
Turning to “MAP9-MTBD (Human MAP9 (302–647)::GFP::strepII) (from UniProt Q49MG5) F473A; F516A”, the response in assay [1] worked out at 0.17 a.u.
